From US20150266962A1 (Pfizer, published 2015)

Biological target: T1, recombinant mouse IL-13-Rα2 (mIL-13-Rα2) (mouse, UniProt O88786 22-334, limits assumed)
T1 construct: also called murine mIL-13Rα2
T1 sequence (looked up): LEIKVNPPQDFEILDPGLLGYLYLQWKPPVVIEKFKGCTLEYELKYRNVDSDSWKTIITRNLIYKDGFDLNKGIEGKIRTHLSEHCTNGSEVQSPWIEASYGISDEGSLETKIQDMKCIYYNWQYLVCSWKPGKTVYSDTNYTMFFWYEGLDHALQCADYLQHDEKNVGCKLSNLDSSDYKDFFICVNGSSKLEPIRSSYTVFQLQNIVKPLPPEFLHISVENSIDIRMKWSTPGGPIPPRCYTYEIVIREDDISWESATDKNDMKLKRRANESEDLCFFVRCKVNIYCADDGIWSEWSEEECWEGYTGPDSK
Test: direct ELISA on coated recombinant mIL-13-Rα2, serially diluted purified ch07
Description: The binding of hu07 and hu08 to mouse IL-13-Rα2 was evaluated by direct ELISA. The identity between human and mouse IL-13-Rα2 at the amino acid level is approximately 64%. Recombinant mIL-13-Rα2 or hIL-13-Rα2 (as positive control) was coated onto a 96-well plate. Purified chimeric ch07 and ch08 were serially diluted and added to the antigen coated plate. The bound antibodies were detected by HRP conjugated goat anti-human IgGFc specific secondary antibody.

binding result: no binding
B1: chimeric antibody ch07 (antibody, human IgG1, V domains shown)
VH: QVQLKESGPGLVAPSQSLSINCTVSGFSLTKYGVHWIRQSPGKGLEWLGVKWAGGSTDYNSALMSRLTISKDNNKSQVFLKMNSLQSDDSAMYYCARDHRDAMDYWGQGTSVTVSS
VL: QVVLTQSPAIMSASPGERVTMTCTASLSVSSTYLHWYHQKPGSSPKLWIYSTSNLASGVPARFSGSGSGTSYSLTISSMEAEDAATYYCHQYHRSPLTFGSGTKLELK
notes: also called chimeric antibody 07; biotin-ch07 (biotinylated form)
